From paper doi:10.1101/2021.03.03.433707

Biological target: MukB, full length, wild type (E. coli) (UniProt P22523)
Experiment: fluorescence correlation spectroscopy

MukB, full length, wild type (E. coli), sequence (P22523 whole entry): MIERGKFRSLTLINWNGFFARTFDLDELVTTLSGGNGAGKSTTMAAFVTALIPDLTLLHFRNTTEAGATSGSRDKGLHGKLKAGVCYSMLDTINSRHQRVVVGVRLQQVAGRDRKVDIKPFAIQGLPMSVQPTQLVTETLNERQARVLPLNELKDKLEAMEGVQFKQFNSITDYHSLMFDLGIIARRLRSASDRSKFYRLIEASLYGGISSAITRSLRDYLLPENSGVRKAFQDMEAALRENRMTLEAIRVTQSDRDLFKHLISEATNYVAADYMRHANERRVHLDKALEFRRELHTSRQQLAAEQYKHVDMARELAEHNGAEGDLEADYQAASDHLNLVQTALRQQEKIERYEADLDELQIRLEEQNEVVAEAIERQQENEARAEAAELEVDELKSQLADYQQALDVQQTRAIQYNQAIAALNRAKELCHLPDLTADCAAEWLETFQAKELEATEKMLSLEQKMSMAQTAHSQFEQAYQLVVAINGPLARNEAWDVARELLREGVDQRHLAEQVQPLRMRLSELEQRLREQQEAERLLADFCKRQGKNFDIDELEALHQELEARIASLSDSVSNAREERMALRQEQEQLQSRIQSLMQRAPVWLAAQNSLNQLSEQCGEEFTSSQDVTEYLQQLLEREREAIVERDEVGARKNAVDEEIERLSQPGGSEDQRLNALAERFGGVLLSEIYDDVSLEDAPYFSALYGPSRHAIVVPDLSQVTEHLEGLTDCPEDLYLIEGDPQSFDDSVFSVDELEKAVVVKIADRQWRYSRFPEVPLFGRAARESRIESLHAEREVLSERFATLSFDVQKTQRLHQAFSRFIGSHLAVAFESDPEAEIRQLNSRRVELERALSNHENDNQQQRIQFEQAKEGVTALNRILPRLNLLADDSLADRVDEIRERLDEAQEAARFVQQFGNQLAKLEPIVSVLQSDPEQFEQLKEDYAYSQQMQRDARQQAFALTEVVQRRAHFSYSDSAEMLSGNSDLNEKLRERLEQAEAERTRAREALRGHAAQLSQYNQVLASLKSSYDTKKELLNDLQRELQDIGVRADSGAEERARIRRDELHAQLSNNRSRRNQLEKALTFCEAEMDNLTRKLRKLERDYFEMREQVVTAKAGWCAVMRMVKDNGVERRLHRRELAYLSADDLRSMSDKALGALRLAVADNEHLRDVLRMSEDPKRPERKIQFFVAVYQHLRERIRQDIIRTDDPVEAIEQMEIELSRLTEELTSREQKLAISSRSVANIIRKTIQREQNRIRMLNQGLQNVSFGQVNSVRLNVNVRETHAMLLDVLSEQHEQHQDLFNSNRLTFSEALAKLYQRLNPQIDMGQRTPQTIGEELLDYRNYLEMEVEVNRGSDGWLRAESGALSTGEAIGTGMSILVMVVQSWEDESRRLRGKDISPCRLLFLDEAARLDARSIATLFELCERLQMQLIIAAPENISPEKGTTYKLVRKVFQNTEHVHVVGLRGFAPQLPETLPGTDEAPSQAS
MBP-ParC^CTD (ParC C-terminal domain with N-terminal MBP fusion) (domain or fragment), sequence (P0AFI2 whole entry, the tested form may be a part): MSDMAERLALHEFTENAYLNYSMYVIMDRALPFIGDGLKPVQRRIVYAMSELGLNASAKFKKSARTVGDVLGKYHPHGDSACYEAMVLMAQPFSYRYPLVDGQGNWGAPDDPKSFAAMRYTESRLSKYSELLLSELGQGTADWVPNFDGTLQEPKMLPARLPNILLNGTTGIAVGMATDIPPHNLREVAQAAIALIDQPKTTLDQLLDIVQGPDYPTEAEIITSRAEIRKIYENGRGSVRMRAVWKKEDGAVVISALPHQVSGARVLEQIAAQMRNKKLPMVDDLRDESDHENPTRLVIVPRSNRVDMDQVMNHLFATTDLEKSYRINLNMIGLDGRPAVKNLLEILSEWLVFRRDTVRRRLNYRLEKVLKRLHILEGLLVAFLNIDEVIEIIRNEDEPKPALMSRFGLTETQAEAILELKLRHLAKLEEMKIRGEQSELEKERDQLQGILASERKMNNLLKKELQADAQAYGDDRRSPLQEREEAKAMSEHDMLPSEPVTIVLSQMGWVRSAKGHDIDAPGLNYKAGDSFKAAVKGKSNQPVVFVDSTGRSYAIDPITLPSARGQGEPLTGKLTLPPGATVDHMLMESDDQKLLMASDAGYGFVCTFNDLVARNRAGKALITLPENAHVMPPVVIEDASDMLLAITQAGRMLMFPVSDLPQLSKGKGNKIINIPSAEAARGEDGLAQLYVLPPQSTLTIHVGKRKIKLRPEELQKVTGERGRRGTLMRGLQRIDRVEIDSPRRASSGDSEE

In the case of “MBP-ParC^CTD (ParC C-terminal domain with N-terminal MBP fusion) (domain or fragment)”, the fold decrease in MatP-Cy3B binding to MukB at a 10-fold excess of competitor is reported as 3 fold.
